From patent US20240287196A1 (published 2024) come the findings set out here.

Positions count from the first letter of the chain named. Like-named read-outs stand apart in the source and are kept apart here.

Experiment [1] concerns the target T1, rat Alk7-Fc comprising protein (rat, UniProt P70539 26-113).
T1 construct: not shown: Fc part and any linker
T1 sequence: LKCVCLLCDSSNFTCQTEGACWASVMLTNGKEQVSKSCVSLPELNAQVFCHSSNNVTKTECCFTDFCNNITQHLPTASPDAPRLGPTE
The experiment can be described thus: SPR (Biacore T100/T200); antibody captured on FAB chip, ALK7-Fc comprising protein as analyte; 1:1 model. How it is done:
(§1) Experiments were performed using a Biacore T100/T200 biosensor (Biacore/GE Healthcare) at 25 and 37° C. ALK7 antibodies were captured on custom made FAB chip. A concentration series of ALK7-Fc comprising protein was injected over the flow cells at a flow rate of […]. To obtain kinetic rate constants the corrected data were fit to a 1:1 interaction model using BiaEvaluation software (GE Healthcare). The equilibrium binding constant KD was determined by the ratio of binding rate constants kd/ka.

Experiment [2] has as its target T2, human ALK7-Fc comprising protein (human, UniProt Q8NER5 22-113).
T2 construct: also called hALK7-Fc; not shown: Fc part and any linker
T2 sequence: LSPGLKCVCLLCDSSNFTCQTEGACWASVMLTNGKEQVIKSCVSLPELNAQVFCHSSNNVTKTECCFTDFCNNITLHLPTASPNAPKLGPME
Described as above. The protocol: as §1

The target of experiment [3] is T3, ALK7-Fc comprising protein (Homo sapiens (Human), UniProt Q8NER5 21-113).
T3 construct: not shown: The Fc part and any linker of the fusion; The construct's exact ALK7 limits are not seen either
T3 sequence: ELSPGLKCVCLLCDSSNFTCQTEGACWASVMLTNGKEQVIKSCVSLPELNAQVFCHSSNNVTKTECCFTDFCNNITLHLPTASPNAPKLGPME
The experiment can be described thus: SPR (Biacore T100/T200), 25 °C; antibody captured on FAB chip, ALK7-Fc comprising protein as analyte; 1:1 model. The protocol:
Experiments were performed using a Biacore T100/T200 biosensor (Biacore/GE Healthcare) at 25 and 37° C. ALK7 antibodies were captured on custom made FAB chip. A concentration series of ALK7-Fc comprisingprotein was injected over the flow cells at a flow rate of […]. To obtain kinetic rate constants the corrected data were fit to a 1:1 interaction model using BiaEvaluation software (GE Healthcare). The equilibrium binding constant KD was determined by the ratio of binding rate constants kd/kₐ.
On the technique in general: In SPR one partner is held on a chip, and binding of the other changes the refractive index at the surface.

Experiment [4] has as its target T4, ALK7 on differentiated 3T3-L1 adipocytes (UniProt Q8K348 26-493, limits assumed).
T4 sequence (looked up): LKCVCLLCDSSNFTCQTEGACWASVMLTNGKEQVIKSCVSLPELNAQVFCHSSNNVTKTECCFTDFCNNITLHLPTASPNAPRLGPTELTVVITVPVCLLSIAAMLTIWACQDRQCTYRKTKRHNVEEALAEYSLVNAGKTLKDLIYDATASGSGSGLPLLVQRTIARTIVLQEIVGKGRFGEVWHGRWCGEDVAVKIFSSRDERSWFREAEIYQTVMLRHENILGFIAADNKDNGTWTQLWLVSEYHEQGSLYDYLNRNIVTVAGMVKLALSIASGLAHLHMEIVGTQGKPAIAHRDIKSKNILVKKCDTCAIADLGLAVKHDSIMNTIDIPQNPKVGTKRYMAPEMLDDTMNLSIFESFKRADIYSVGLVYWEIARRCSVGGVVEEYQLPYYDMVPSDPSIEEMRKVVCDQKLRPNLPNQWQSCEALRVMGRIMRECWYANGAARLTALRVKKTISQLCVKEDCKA
The experiment in a line: cell-based or functional assay.

Experiment [5] addresses T2, human ALK7-Fc comprising protein. The experiment in a line: SPR (Biacore T100/T200); antibody captured on FAB chip, ALK7-Fc comprising protein as analyte; 1:1 model. The source holds these as a separate data set.

B1: L01 (antibody, V domains shown)
VH: QVQLVQSGAEVKKPGSSVKVSCKASGGTFSSYAISWVRQAPGQGLEWMGSIIPIFGTANYAQKFQGRVTITADESTSTAYMELSSLRSEDTAVYYCARDPVGARYEVFDYWGQGTLVTVSS
VL: EIVMTQSPATLSVSPGERATLSCRASQSVSSNLAWYQQKPGQAPRLLIYSASTRATGIPARFSGSGSGTEFTLTISSLQSEDFAVYYCQQANTFPLTFGGGTKVEIK
notes: also called antibody L01
For orientation: Kd means a measure of binding affinity in units of concentration. High values mean a looser complex, low ones a tighter complex. In general, koff refers to a measure of how fast the partners let go of each other. Low readings indicate a long-lived complex, high ones a short-lived complex. As usually defined, the kon is the second-order rate constant of association. In experiment [1], B1 registered a Kd of 22.9 nM, a koff of 0.000271 s⁻¹ and a kon of 11800 M⁻¹ s⁻¹. In experiment [2], this molecule registered a Kd of 15.1 nM and a kon of 24300 M⁻¹ s⁻¹.

B2: L02 (antibody, V domains shown)
VH: QVQLVQSGAEVKKPGASVKVSCKASGYTFAGYNMHWVRQAPGQGLEWVGIINPNSGWTNYAQKFQGRVTMTRDTSVSAAYMELSRLRSDDTAVYYCARDPVGARYEVFDYWGQGTLVTVSS
VL: B1 VL with N32A, S52F, T56S, N92W, T93A
notes: also called mAb L02; antibody L02
Consider B2, for which, in experiment [3], the Kd turned out to be 0.44 nM, the koff amounted to 1.21e-05 s⁻¹ and the kon stood at 27400 M⁻¹ s⁻¹.

B3: G04 (antibody, V domains shown)
VH: QVQLVQSGAEVKKPGSSVKVSCKASGGTFSSYAISWVRQAPGQGLEWMGGIIPIFGTASYAQKFQGRVTITADESTSTAYMELSSLRSEDTAVYYCARTPYYDSSGYLDVWGQGTMVTVSS
VL: DIQMTQSPSSLSASVGDRVTITCQASQDISNYLNWYQQKPGKAPKLLIYDASNLATGVPSRFSGSGSGTDFTFTISSLQPEDIATYYCQQSLDLPPTFGGGTKVEIK
notes: also called antibody G04
B3: the “Increase in lipolysis activity (%)” value in experiment [4] worked out at 45.8%. In experiment [5], this molecule yielded a Kd of 247 nM, a koff of 0.0222 s⁻¹ and a kon of 89600 M⁻¹ s⁻¹.

B4: G05 (antibody, human IgG1, kappa, V domains shown)
VH: B3 VH with S31G, Y32Q, I54S, S59R
VL: DIQMTQSPSSLSASVGDRVTITCQASHDIDNYLNWYQQKPGKAPKLLIYYASNLKTGVPSRFSGSGSGTDFTFTISSLQPEDIATYYCQQSRASPPTFGGGTKVEIKR
notes: also called mAb G05; antibody G05
As for B4, in experiment [3], the affinity, expressed as Kd, was 0.87 nM; the koff amounted to 2.59e-05 s⁻¹; the kon was found to be 29900 M⁻¹ s⁻¹.

B5: K01 (antibody, V domains shown)
VH: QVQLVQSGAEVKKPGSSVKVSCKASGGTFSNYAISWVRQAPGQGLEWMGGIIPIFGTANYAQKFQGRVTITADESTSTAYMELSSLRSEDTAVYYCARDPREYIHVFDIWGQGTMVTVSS
VL: DIQMTQSPSSLSASVGDRVTITCRASQSISSYLNWYQQKPGKAPKLLIYGASSLQSGVPSRFSGSGSGTDFTLTISSLQPEDFATYYCQQAYSFPWTFGGGIKVEIK
notes: also called antibody K01
In experiment [1], B5 registered a Kd of 8.14 nM, a koff of 0.000139 s⁻¹ and a kon of 17100 M⁻¹ s⁻¹. In experiment [2], this molecule showed a Kd of 201 nM, a koff of 0.00916 s⁻¹ and a kon of 45600 M⁻¹ s⁻¹.

B6: K02 (antibody, V domains shown)
VH: QVQLVQSGAEVKKPGSSVKVSCKASGGTFSSSAIGWVRQAPGQGLEWMGGIWPIFGTALYAQKFQGRVTITADESTSTAYMELSSLRSEDTAVYYCARDPREYIHVFDIWGQGTMVTVSS
VL: B5 VL
notes: also called mAb K02; antibody K02
B6: in experiment [3], the Kd came out at 12.4 nM, the koff was 0.000291 s⁻¹ and the kon stood at 23500 M⁻¹ s⁻¹.

B7: J02 (antibody, V domains shown)
VH: EVQLLESGGGLVQPGGSLRLSCAASGFTFSVYAMSWVRQAPGKGLEWVSAISGSGDSTVYADSVKGRFTISRDNSKNTLYLQMNSLRAEDTAVYYCAKPSYQPIYWGQGTLVTVSS
VL: B5 VL with L11V, S28G, Y32W, N34A, G50A, Y92A, F94Y, W96L, I102T
notes: also called mAb J02; antibody J02
For the molecule B7, in experiment [3], the Kd amounted to 5.33 nM, the koff came to 0.000126 s⁻¹ and the on-rate constant (kon) was found to be 23600 M⁻¹ s⁻¹.

B8: C03 (antibody, human IgG1, kappa, V domains shown)
VH: QLQLQESGPGLVKPSETLSLTCTVSGGSISSSAYYWAWIRQPPGKGLEWIGSIYLSGSTTYNPSLKSRVTISVDTSKNQFSLKLSSVTAADTAVYYCARDGRYQSRSPDYYYGMDVWGQGTTVTVSS
VL: EIVLTQSPGTLSLSPGERATLSCKASQSVSSSYLAWYQQKPGQAPRLLIYGAFSRANGIPDRFSGSGSGTDFTLTISRLEPEDFAVYYCQQLVSYPFTFGGGTKVEIKR
notes: also called mAb C03; antibody C03
As to B8, in experiment [3], the Kd was determined as 0.33 nM, the koff is 1.27e-05 s⁻¹ and the kon stood at 38300 M⁻¹ s⁻¹.
